Measurements from patent US20250262210A1 (TRUSTEES OF COLUMBIA UNIVERSITY IN THE CITY OF NEW YORK, published 2025).

Tests used:
Test in all cases: IP/MS, LZTR1 R810W-FLAG, U87
PEAK1 = PEAK1 (human, UniProt Q9H792 1-1746)
Procedure, shortened: (§1)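 Gel slices were reduced with 5 mM DTT, alkylated with 11 mM IAA and digested overnight at 37° C. with trypsin. Peptides were analysed on an Orbitrap Fusion Tribrid by LC-MS/MS.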

ALPK2 = ALPK2 (human, UniProt Q86TB3 1-2170)
Procedure, shortened: as §1

ARHGEF28 = ARHGEF28 (human, UniProt Q8N1W1 1-1705, limits assumed)
Procedure, shortened: as §1

TTC27 = TTC27 (human, UniProt Q6P3X3 1-843)
Procedure, shortened: as §1

STK11IP = target: T1, STK11IP (human, UniProt Q8N1F8 1-1088)
T1 sequence (looked up): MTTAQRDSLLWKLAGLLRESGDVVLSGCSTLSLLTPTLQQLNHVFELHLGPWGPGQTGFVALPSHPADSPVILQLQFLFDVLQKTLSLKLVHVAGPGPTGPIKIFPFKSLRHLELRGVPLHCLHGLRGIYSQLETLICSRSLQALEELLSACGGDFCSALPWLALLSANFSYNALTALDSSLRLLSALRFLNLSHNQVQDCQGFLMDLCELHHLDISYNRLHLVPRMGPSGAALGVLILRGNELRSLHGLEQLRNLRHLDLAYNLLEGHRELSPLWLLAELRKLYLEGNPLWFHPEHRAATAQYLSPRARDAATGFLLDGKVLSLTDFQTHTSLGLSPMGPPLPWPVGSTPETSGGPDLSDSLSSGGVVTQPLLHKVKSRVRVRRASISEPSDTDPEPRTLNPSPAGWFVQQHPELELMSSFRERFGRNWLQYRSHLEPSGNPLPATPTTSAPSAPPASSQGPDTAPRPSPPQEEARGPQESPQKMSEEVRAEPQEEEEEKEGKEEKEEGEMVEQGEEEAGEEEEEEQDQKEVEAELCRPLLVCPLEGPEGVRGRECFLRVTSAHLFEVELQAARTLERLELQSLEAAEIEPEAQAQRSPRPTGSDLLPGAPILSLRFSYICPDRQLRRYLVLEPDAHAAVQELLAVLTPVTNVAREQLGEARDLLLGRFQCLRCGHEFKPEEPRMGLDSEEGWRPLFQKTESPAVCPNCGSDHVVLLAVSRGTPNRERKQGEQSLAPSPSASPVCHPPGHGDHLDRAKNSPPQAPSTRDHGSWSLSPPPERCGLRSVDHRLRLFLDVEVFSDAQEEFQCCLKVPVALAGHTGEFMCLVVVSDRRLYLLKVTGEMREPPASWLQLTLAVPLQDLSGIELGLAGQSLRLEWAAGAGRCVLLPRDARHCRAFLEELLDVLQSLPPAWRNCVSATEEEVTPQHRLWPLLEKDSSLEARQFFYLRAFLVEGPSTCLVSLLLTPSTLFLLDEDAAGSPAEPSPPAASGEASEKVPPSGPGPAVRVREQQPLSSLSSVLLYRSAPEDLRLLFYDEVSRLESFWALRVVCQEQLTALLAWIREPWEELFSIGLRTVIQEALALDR
Procedure, shortened: as §1

Measured: binding result

PEAK1, sequence (Q9H792 whole entry, the tested form may be a part): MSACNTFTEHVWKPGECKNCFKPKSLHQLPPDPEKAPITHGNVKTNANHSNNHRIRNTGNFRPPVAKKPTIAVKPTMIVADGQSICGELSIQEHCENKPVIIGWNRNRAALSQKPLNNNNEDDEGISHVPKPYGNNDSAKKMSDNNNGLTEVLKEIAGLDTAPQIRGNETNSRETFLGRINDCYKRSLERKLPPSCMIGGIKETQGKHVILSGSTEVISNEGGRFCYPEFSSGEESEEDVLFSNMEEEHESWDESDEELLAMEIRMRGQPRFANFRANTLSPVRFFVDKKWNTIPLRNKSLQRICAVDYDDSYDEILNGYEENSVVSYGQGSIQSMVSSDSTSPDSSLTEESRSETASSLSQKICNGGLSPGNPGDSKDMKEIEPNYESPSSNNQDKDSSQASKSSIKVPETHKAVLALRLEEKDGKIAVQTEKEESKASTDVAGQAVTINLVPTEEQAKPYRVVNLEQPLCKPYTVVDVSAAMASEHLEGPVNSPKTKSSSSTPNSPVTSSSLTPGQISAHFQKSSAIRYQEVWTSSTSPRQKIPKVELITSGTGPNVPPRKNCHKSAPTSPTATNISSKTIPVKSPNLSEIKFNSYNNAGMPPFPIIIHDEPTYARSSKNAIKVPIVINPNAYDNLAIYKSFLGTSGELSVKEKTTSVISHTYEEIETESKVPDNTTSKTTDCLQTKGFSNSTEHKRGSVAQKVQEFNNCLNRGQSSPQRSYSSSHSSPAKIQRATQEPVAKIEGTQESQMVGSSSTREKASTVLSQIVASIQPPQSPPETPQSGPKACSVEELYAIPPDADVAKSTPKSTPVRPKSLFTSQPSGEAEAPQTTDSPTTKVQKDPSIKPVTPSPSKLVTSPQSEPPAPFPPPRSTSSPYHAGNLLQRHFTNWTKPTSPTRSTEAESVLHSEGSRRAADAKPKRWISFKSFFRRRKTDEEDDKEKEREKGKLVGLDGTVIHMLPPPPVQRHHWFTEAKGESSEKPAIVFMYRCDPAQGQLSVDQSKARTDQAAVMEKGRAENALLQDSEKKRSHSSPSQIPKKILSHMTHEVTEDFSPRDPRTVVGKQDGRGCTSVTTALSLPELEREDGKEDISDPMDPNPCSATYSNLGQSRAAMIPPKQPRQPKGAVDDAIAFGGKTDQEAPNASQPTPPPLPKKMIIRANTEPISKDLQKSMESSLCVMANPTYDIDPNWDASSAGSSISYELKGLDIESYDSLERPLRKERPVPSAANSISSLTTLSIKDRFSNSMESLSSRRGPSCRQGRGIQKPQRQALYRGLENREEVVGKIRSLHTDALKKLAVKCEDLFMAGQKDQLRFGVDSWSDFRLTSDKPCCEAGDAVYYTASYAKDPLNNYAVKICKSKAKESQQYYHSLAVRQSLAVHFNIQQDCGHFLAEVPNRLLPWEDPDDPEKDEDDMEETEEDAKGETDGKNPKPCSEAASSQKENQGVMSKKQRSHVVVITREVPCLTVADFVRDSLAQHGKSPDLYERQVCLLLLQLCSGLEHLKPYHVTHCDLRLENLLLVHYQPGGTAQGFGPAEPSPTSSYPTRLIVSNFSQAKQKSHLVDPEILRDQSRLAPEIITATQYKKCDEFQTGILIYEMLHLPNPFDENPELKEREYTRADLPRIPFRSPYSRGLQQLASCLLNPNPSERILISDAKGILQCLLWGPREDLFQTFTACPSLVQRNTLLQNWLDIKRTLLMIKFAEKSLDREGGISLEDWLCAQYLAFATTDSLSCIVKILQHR
ALPK2, sequence (Q86TB3 whole entry): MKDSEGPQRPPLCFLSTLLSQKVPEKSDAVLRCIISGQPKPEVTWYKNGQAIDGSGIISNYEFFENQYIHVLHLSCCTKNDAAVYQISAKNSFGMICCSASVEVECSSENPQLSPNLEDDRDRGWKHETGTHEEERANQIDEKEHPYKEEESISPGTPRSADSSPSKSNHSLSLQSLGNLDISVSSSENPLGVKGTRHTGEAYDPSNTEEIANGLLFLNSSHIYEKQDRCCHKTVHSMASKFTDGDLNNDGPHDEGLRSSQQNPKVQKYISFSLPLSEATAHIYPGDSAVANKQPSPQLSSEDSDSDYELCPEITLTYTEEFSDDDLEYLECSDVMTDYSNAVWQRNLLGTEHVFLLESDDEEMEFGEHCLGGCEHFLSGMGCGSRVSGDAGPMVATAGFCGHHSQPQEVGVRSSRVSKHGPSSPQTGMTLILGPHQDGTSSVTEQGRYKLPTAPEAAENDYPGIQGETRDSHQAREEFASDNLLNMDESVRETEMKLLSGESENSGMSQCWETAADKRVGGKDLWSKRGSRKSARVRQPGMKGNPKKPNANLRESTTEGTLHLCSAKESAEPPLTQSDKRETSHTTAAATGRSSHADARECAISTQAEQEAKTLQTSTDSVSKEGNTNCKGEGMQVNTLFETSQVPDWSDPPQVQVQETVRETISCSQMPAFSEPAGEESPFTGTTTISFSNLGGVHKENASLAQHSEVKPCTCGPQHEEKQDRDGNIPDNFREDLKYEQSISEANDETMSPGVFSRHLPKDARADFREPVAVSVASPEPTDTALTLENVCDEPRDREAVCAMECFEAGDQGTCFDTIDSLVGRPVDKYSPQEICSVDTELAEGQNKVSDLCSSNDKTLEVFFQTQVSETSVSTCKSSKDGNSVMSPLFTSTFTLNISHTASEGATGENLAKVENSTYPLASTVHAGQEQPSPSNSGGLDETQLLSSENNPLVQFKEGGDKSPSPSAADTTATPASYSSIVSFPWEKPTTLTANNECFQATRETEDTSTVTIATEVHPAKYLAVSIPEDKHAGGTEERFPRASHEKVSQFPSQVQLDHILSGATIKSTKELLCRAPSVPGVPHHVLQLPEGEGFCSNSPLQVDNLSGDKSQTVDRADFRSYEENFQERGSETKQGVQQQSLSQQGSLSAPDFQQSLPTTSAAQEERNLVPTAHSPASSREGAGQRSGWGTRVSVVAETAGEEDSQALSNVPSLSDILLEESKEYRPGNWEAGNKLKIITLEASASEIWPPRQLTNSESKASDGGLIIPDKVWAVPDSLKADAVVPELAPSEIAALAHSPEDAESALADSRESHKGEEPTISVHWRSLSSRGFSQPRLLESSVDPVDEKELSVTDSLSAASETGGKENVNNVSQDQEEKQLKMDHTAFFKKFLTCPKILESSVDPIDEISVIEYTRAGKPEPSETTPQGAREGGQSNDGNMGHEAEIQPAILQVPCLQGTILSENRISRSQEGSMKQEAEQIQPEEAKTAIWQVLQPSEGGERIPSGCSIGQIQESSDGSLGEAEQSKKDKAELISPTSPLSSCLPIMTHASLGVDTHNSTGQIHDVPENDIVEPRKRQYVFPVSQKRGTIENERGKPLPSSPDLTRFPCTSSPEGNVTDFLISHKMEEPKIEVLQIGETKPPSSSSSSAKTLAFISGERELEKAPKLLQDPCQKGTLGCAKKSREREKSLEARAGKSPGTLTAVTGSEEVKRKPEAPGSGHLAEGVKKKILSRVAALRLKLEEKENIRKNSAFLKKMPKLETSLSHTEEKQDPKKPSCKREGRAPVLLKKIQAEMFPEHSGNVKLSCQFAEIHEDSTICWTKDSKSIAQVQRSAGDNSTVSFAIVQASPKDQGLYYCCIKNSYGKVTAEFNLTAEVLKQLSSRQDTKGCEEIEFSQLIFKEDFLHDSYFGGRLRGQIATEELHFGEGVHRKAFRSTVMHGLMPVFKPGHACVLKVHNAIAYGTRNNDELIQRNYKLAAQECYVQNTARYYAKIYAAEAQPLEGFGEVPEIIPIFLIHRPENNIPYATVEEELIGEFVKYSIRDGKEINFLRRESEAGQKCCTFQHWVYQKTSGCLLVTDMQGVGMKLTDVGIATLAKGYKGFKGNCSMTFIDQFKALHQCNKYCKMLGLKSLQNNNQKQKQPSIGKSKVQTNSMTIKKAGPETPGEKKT

B1: LZTR1 R810W-FLAG (other, human, UniProt Q8N653 1-840, looked up)
chain: MAGPGSTGGQIGAAALAGGARSKVAPSVDFDHSCSDSVEYLTLNFGPFETVHRWRRLPPCDEFVGARRSKHTVVAYKDAIYVFGGDNGKTMLNDLLRFDVKDCSWCRAFTTGTPPAPRYHHSAVVYGSSMFVFGGYTGDIYSNSNLKNKNDLFEYKFATGQWTEWKIEGRLPVARSAHGATVYSDKLWIFAGYDGNARLNDMWTIGLQDRELTCWEEVAQSGEIPPSCCNFPVAVCRDKMFVFSGQSGAKITNNLFQFEFKDKTWTRIPTEHLLRGSPPPPQRRYGHTMVAFDRHLYVFGGAADNTLPNELHCYDVDFQTWEVVQPSSDSEVGGAEVPERACASEEVPTLTYEERVGFKKSRDVFGLDFGTTSAKQPTQPASELPSGRLFHAAAVISDAMYIFGGTVDNNIRSGEMYRFQFSCYPKCTLHEDYGRLWESRQFCDVEFVLGEKEECVQGHVAIVTARSRWLRRKITQARERLAQKLEQEAAPVPREAPGVAAGGARPPLLHVAIREAEARPFEVLMQFLYTDKIKYPRKGHVEDVLLIMDVYKLALSFQLCRLEQLCRQYIEASVDLQNVLVVCESAARLQLSQLKEHCLNFVVKESHFNQVIMMKEFERLSSPLIVEIVRRKQQPPPRTPLDQPVDIGTSLIQDMKAYLEGAGAEFCDITLLLDGHPRPAHKAILAARSSYFEAMFRSFMPEDGQVNISIGEMVPSRQAFESMLRYIYYGEVNMPPEDSLYLFAAPYYYGFYNNRLQAYCKQNLEMNVTVQNVLQILEAADKTQALDMKRHCLHIIVHQFTKVSKLPTLWSLSQQLLLDIIDSLASHISDKQCAELGADI
notes: Stably expressed in U87 cells by lentivirus; also called LZTR1-FLAG-R810W; LZTR1 RW; not shown: FLAG tag
binds: all assays above
